The RNAGym collection of RNA variant scans (doi:10.1093/molbev/msab373)

B1: Azoarcus group I ribozyme (parent)
chain: GUGCCUUGCGCCGGGAAACCACGCAAGGGAUGGUGUCAAAUUCGGCGAAACCUAAGCGCCCGCCCGGGCGUAUGGCAACGCCGAGCCAAGCUUCGGCGCCUGCGCCGAUGAAGGUGUAGAGACUAGACGGCACCCACCUAAGGCAAACGCUAUGGUGAAGGCAUAGUCCAGGGAGUGGCGAAAGUCACACAAACCGG

Variants of: B1
Experiment: reverse-splicing fitness (ratio to wild type); higher = more active; in vitro selection; Mg2+ level not given
Outline: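 An in vitro group I ribozyme library with randomized positions was T7-transcribed and gel-purified. In triplicate, 10 pmol RNA in EPPS pH 7.5 was reacted with 50 pmoles of a 30-nt RNA substrate for 1 h at 37 °C across several added MgCl2 levels (1–48 mM), then stopped with EDTA. Products were reverse transcribed from a substrate-complementary primer, PCR-amplified and sequenced (HiSeq 4000). Fitness is a variant's read proportion after selection over that before, normalised to wild type.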

| Variant | reverse-splicing fitness |
| --- | --- |
| GUGCCUUGCGCCGGGAAACCACGCAAGGGAUGGUGUCAAAUUCGGCGAAACCUAAGCGCCCGCCCGGGCGUAUGGCAACGCGGAGCCAAGCUUCGGCGCCUGCGCCGAUGCAGGUGUAGUGACUAGACGGCACCCACCUAAGGCAAACGCUAUGGUGAAGGCAUAGUCGAGGGAGAGGCGAAAGUCACACAAACCGG [C82G A111C A120U C169G U176A] | 0.00344 |
| GUGCCUUGCGCCGGGAAACCACGCAAGGGAUGGUGUCAAAUUCGGCGAAACCUAAGCGCCCGCCCGGGCGUAUGGCAACGCGGAGCCAAGCUUCGGCGCCUGCGCCGAUGCAGGUGUAGUGACUAGACGGCACCCACCUAAGGCAAACGCUAUGGUGAAGGCAUAGUCGAGGGAGGGGCGAAAGUCACACAAACCGG [C82G A111C A120U C169G U176G] | 0.00213 |
| GUGCCUUGCGCCGGGAAACCACGCAAGGGAUGGUGUCAAAUUCGGCGAAACCUAAGCGCCCGCCCGGGCGUAUGGCAACGCGGAGCCAAGCUUCGGCGCCUGCGCCGAUGCAGGUGUAGUGACUAGACGGCACCCACCUAAGGCAAACGCUAUGGUGAAGGCAUAGUCGAGGGAGCGGCGAAAGUCACACAAACCGG [C82G A111C A120U C169G U176C] | 0.00367 |
| GUGCCUUGCGCCGGGAAACCACGCAAGGGAUGGUGUCAAAUUCGGCGAAACCUAAGCGCCCGCCCGGGCGUAUGGCAACGCGGAGCCAAGCUUCGGCGCCUGCGCCGAUGCAGGUGUAGAGACUAGACGGCACCCACCUAAGGCCAACGAUAUGGUGAAGGCAUAGUCAAGGGAGUGGCGAAAGUCACACAAACCGG [C82G A111C A145C C150A C169A] | 0.00842 |
| GUGCCUUGCGCCGGGAAACCACGCAAGGGAUGGUGUCAAAUUCGGCGAAACCUAAGCGCCCGCCCGGGCGUAUGGCAACGCGGAGCCAAGCUUCGGCGCCUGCGCCGAUGCAGGUGUAGUGACUAGACGGCACCCACCUAAGGCAAACGUUAUGGUGAAGGCAUAGUCUAGGGAGGGGCGAAAGUCACACAAACCGG [C82G A111C A120U C150U C169U U176G] | 0.0024 |
| GUGCCUUGCGCCGGGAAACCACGCAAGGGAUGGUGUCAAAUUCGGCGAAACCUAAGCGCCCGCCCGGGCGUAUGGCAACGCGGAGCCAAGCUUCGGCGCCUGCGCCGAUGCAGGUGUAGUGACUAGACGGCACCCACCUAAGGCAAACGUUAUGGUGAAGGCAUAGUCUAGGGAGAGGCGAAAGUCACACAAACCGG [C82G A111C A120U C150U C169U U176A] | 0.00688 |
| GUGCCUUGCGCCGGGAAACCACGCAAGGGAUGGUGUCAAAUUCGGCGAAACCUAAGCGCCCGCCCGGGCGUAUGGCAACGCGGAGCCAAGCUUCGGCGCCUGCGCCGAUGCAGGUGUAGUGACUAGACGGCACCCACCUAAGGCAAACGUUAUGGUGAAGGCAUAGUCUAGGGAGCGGCGAAAGUCACACAAACCGG [C82G A111C A120U C150U C169U U176C] | 0.00485 |
| GUGCCUUGCGCCGGGAAACCACGCAAGGGAUGGUGUCAAAUUCGGCGAAACCUAAGCGCCCGCCCGGGCGUAUGGCAACGCGGAGCCAAGCUUCGGCGCCUGCGCCGAUGCAGGUGUAGAGACUAGACGGCACCCACCUAAGGCCAACGCUAUGGUGAAGGCAUAGUCCAGGGAGUGGCGAAAGUCACACAAACCGG [C82G A111C A145C] | 0.29 |
| GUGCCUUGCGCCGGGAAACCACGCAAGGGAUGGUGUCAAAUUCGGCGAAACCUAAGCGCCCGCCCGGGCGUAUGGCAACGCGGAGCCAAGCUUCGGCGCCUGCGCCGAUGCAGGUGUAGUGACUAGACGGCACCCACCUAAGGCAAACGUUAUGGUGAAGGCAUAGUCGAGGGAGAGGCGAAAGUCACACAAACCGG [C82G A111C A120U C150U C169G U176A] | 0.00503 |
| GUGCCUUGCGCCGGGAAACCACGCAAGGGAUGGUGUCAAAUUCGGCGAAACCUAAGCGCCCGCCCGGGCGUAUGGCAACGCGGAGCCAAGCUUCGGCGCCUGCGCCGAUGCAGGUGUAGUGACUAGACGGCACCCACCUAAGGCAAACGUUAUGGUGAAGGCAUAGUCGAGGGAGCGGCGAAAGUCACACAAACCGG [C82G A111C A120U C150U C169G U176C] | 0.00301 |
| GUGCCUUGCGCCGGGAAACCACGCAAGGGAUGGUGUCAAAUUCGGCGAAACCUAAGCGCCCGCCCGGGCGUAUGGCAACGCGGAGCCAAGCUUCGGCGCCUGCGCCGAUGCAGGUGUAGUGACUAGACGGCACCCACCUAAGGCAAACGUUAUGGUGAAGGCAUAGUCGAGGGAGGGGCGAAAGUCACACAAACCGG [C82G A111C A120U C150U C169G U176G] | 0.00259 |
| GUGCCUUGCGCCGGGAAACCACGCAAGGGAUGGUGUCAAAUUCGGCGAAACCUAAGCGCCCGCCCGGGCGUAUGGCAACGCGGAGCCAAGCUUCGGCGCCUGCGCCGAUGCAGGUGUAGUGACUAGACGGCACCCACCUAAGGCAAACGCUAUGGUGAAGGCAUAGUCGAGGGAGUGGCGAAAGUCACACAAACCGG [C82G A111C A120U C169G] | 0.00478 |
| GUGCCUUGCGCCGGGAAACCACGCAAGGGAUGGUGUCAAAUUCGGCGAAACCUAAGCGCCCGCCCGGGCGUAUGGCAACGCGGAGCCAAGCUUCGGCGCCUGCGCCGAUGCAGGUGUAGUGACUAGACGGCACCCACCUAAGGCAAACGCUAUGGUGAAGGCAUAGUCUAGGGAGUGGCGAAAGUCACACAAACCGG [C82G A111C A120U C169U] | 0.00571 |
| GUGCCUUGCGCCGGGAAACCACGCAAGGGAUGGUGUCAAAUUCGGCGAAACCUAAGCGCCCGCCCGGGCGUAUGGCAACGCGGAGCCAAGCUUCGGCGCCUGCGCCGAUGCAGGUGUAGUGACUAGACGGCACCCACCUAAGGCAAACGCUAUGGUGAAGGCAUAGUCAAGGGAGUGGCGAAAGUCACACAAACCGG [C82G A111C A120U C169A] | 0.00474 |
| GUGCCUUGCGCCGGGAAACCACGCAAGGGAUGGUGUCAAAUUCGGCGAAACCUAAGCGCCCGCCCGGGCGUAUGGCAACGCGGAGCCAAGCUUCGGCGCCUGCGCCGAUGCAGGUGUAGUGACUAGACGGCACCCACCUAAGGCAAACGUUAUGGUGAAGGCAUAGUCGAGGGAGUGGCGAAAGUCACACAAACCGG [C82G A111C A120U C150U C169G] | 0.00542 |
